Results reported in article PMC4490372, “Architecture of TFIIIC and its role in RNA polymerase III pre-initiation complex assembly” (Nature Communications, 2015).
Residue numbers refer to the chain shown, from its start. Blank lines part the entries; values can stand above or below the binder they belong to.

Assays:
[1] = molecular target: T1, GST-tagged τ131 (123–566) E498K (S. cerevisiae, UniProt P33339 123-566, E498K); assay: pull-down; 15 μg GST-tagged τ131 on Glutathione Sepharose 4B; 300 nM τ138 or Bdp1, or 1 μM Brf1–TBP; 50 mM Tris pH 7.5, 150 mM NaCl, 2 mM DTT, 0.1% Tween20; 4 °C, 4 h; details: both partners purified
T1 construct: source: E. coli BL21 (DE3) Gold, purified (GST column, S200 SEC)
T1 sequence (looked up): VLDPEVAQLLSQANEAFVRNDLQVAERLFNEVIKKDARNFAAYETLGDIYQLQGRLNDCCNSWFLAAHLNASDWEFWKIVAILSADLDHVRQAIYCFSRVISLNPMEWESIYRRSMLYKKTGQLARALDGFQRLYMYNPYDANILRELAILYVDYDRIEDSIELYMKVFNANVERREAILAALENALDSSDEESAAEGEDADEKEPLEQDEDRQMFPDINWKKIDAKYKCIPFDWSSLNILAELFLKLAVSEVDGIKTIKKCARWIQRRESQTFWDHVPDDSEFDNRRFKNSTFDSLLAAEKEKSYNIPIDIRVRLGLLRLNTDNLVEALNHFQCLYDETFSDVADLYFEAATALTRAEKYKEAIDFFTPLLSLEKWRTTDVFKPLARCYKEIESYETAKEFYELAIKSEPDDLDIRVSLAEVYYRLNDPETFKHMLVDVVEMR

[2] = molecular target: T2, GST-tagged τ131 (123–566) E497K (S. cerevisiae, UniProt P33339 123-566, E497K); assay: as above; details: both partners purified
T2 construct: source: E. coli BL21 (DE3) Gold, purified (GST column, S200 SEC)
T2 sequence (looked up): T1 sequence (looked up) with E375K, K376E

[3] = molecular target: T3, GST-tagged τ131 (123–566) E472K (S. cerevisiae, UniProt P33339 123-566, E472K); assay: as above; details: both partners purified
T3 construct: source: E. coli BL21 (DE3) Gold, purified (GST column, S200 SEC)
T3 sequence (looked up): T1 sequence (looked up) with E350K, K376E

τ131 (123–566) E472K [4] = molecular target: T4, τ131 (123–566) E472K (S. cerevisiae, UniProt P33339 123-566, E472K); assay: ITC
T4 sequence: T1 sequence (looked up) with E350K, K376E

τ131 (123–566) E497K [5] = molecular target: T5, τ131 (123–566) E497K (S. cerevisiae, UniProt P33339 123-566, E497K); assay: ITC
T5 sequence: T1 sequence (looked up) with E375K, K376E

τ131 (123–566) E498K [6] = molecular target: T6, τ131 (123–566) E498K (S. cerevisiae, UniProt P33339 123-566, E498K); assay: ITC
T6 sequence: T1 sequence (looked up)

τ131 (123–566) E497K [7] = molecular target: T7, τ131 (123–566) E497K (S. cerevisiae, UniProt P33339 123-566, E497K); assay: ITC; MicroCal ITC200; 15 μM τ138 in the cell, 150 μM τ131 in the syringe; 20 mM Tris pH 7.5, 150 mM NaCl, 2 mM β-mercaptoethanol; 25 °C; details: both partners purified
T7 construct: source: E. coli, purified by the same method as the wild type; not shown: His6, N-terminal, cleaved
T7 sequence (looked up): T1 sequence (looked up) with E375K, K376E

τ131 (123–566) E498K [8] = molecular target: T8, τ131 (123–566) E498K (S. cerevisiae, UniProt P33339 123-566, E498K); assay: as above; details: both partners purified
T8 construct: source: E. coli, purified by the same method as the wild type; not shown: His6, N-terminal, cleaved
T8 sequence (looked up): T1 sequence (looked up)

τ131 (123–566) E472K [9] = molecular target: T9, τ131 (123–566) E472K (S. cerevisiae, UniProt P33339 123-566, E472K); assay: as above; details: both partners purified
T9 construct: source: E. coli, purified by the same method as the wild type; not shown: His6, N-terminal, cleaved
T9 sequence (looked up): T1 sequence (looked up) with E350K, K376E

[10] = molecular target: T10, τ131 (123–566), TPR array, wild type (S. cerevisiae, UniProt P33339 123-566); assay: as above; details: both partners purified
T10 construct: also called τ131 TPR array; source: E. coli BL21 Star (DE3) pRARE, purified (Ni-NTA, TEV cleavage, S200 SEC); not shown: His6, N-terminal, cleaved
T10 sequence (looked up): T1 sequence (looked up) with K376E

τ131 (123–566) E497K [11] = molecular target: T7, τ131 (123–566) E497K; assay: pull-down; 15 μg GST-τ138 (641–693) on Glutathione Sepharose 4B; 900 nM wild-type or mutant τ131; 50 mM Tris pH 7.5, 150 mM NaCl, 2 mM DTT, 0.1% Tween20; 4 °C, 4 h; details: both partners purified
τ131 (123–566) E498K [12] = molecular target: T8, τ131 (123–566) E498K; assay: as above; details: both partners purified
τ131 (123–566) E472K [13] = molecular target: T9, τ131 (123–566) E472K; assay: as above; details: both partners purified
[14] = molecular target: T11, τ95 (Tfc1), τA subunit of endogenous S. cerevisiae TFIIIC (S. cerevisiae, UniProt P32367 1-649); assay: cross-linking; XL-MS: purified endogenous TFIIIC (30 μg, 1 μg/μl) cross-linked with H12/D12 DSS to 2 mM, 40 min at 37 °C; ld-score >25; details: both partners purified
T11 construct: τ95 (Tfc1), subunit of S. cerevisiae TFIIIC, endogenous subunit in the purified complex; source: endogenous, purified from S. cerevisiae strain SC2342 as part of TFIIIC (TAP tag on τ60)
T11 sequence (looked up): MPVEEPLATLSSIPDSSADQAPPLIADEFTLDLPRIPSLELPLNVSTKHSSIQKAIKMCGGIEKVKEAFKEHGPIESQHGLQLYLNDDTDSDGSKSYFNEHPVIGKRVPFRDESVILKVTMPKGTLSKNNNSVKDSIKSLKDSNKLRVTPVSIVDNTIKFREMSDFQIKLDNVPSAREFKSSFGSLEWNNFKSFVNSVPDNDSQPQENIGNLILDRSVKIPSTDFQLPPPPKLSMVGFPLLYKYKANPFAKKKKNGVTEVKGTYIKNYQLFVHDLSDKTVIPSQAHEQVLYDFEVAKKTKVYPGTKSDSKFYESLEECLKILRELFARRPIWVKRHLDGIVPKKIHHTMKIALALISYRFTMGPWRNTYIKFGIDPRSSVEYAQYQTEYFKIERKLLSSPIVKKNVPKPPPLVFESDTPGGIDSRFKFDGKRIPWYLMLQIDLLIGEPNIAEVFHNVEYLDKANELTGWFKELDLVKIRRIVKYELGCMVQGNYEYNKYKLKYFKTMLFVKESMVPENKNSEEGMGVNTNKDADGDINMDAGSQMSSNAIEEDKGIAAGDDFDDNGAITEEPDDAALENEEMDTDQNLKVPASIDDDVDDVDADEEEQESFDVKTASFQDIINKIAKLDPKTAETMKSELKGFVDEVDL

binding result [1]: binds
binding result [2]: binds
binding result [3]: binds
Kd (τ131 (123–566) E472K [4]): 415 nM
Kd (τ131 (123–566) E497K [5]): 99 nM
Kd (τ131 (123–566) E498K [6]): 971 nM
binding result (τ131 (123–566) E497K [7]): binds
binding result (τ131 (123–566) E498K [8]): binds
binding result (τ131 (123–566) E472K [9]): binds
Kd [10]: ~100 nM
B1: τ138 (546–693), eWH-τIR (domain or fragment, S. cerevisiae, UniProt P34111 546-693, looked up)
chain: SARSLRSLQRQRAILKVMNTIGGVAYLREQFYESVSKYMGSTTTLDKKTVRGDVDLMVESEKLGARTEPVSGRKIIFLPTVGEDAIQRYILKEKDSKKATFTDVIHDTEIYFFDQTEKNRFHRGKKSVERIRKFQNRQKNAKIKASDD
notes: the cloning of this construct is not described; also called τ138 (eWH-τIR); central region of τ138; source: purified; expression of this construct not described

binding result (τ131 (123–566) E497K [11]): binds
binding result (τ131 (123–566) E498K [12]): binds
binding result (τ131 (123–566) E472K [13]): binds
B2: GST-τ138 (641–693) (domain or fragment, S. cerevisiae, UniProt P34111 641-693, looked up)
chain: SKKATFTDVIHDTEIYFFDQTEKNRFHRGKKSVERIRKFQNRQKNAKIKASDD
notes: also called GST-tagged τ138; source: E. coli BL21 (DE3) Gold, purified (GST column, S200 SEC)

binding result [14]: binds
B3: τ55 (Tfc7), τA subunit of endogenous S. cerevisiae TFIIIC (natural protein, UniProt Q12415 1-435, looked up)
chain: MVVNTIYIARHGYRSNWLPEGPYPDPLTGIDSDVPLAEHGVQQAKELAHYLLSLDNQPEAAFASPFYRCLETVQPIAKLLEIPVYLERGIGEWYRPDRKPVIPVPAGYEILSKFFPGVISQEWDSTLTPNEKGETEQEMYMRFKKFWPLFIERVEKEYPNVECILLVTHAASKIALGMSLLGYDNPRMSLNENGDKIRSGSCSLDKYEILKKSYDTIDETDDQTSFTYIPFSDRKWVLTMNGNTEFLSSGEEMNWNFDCVAEAGSDADIKKRQMTKKTSSPIPEADDQTEVETVYISVDIPSGNYKERTEIAKSAILQYSGLETDAPLFRIGNRLYEGSWERLVGTELAFPNAAHVHKKTAGLLSPTEENETTNAGQSKGSSTANDPNIQIQEEDVGLPDSTNTSRDHTGDKEEVQSEKIYRIKERIVLSNVRPM
notes: τ55 (Tfc7), subunit of S. cerevisiae TFIIIC, endogenous subunit in the purified complex; source: endogenous, purified from S. cerevisiae strain SC2342 as part of TFIIIC (TAP tag on τ60)
